According to the DeepSol protein solubility set:

Assay: soluble on expression in E. coli; label from the status in PepcDB or PDB records

Sequence	soluble on expression in E. coli
MGSDKIHHHHHHCSCNDLLDEKAYDFVSPEQLGDSESAASQLVTGAYNTVITSFIAPGSYLYLTNMDCDYASGASWAFGNVGAGNPQGFWGIDHMWQGSYTLIHRANLGISKISAMSNLSQESKQDALAQLCFLKAWAYFNLVRNYGPVPIFRKSISEGEAMSQPRASVSDVYAHIIELLEQAEGMYSKDDAGFVVGHASNGAAKALLAKVYVTMASGAMSGVPIVVKGGNPNIFEPQPITHIAKTVAGYESFDPAKYYALARDKAWEVINEYTLFDNYMDVWAIGNRNKGEHIWMAQAISGDKDFGNTICQDYVGIFKEDGTMEGNWYGMRDHWYLLFEEQDKRIVDGVIHRYASDGISNGKVIYNYYPRWYADKVENKEVYDSQGNAFDGTEVYHEGQGWTLAKLTKFTFVTDRKQKNSDFHFPLLRLPDIMLIYAEAVNELNGGPDAEAYNQVNRIRTRAHATPFSGMNQDEFRSAVLEERARELAYEADRRYDLFRWGIYLDVMNAIDMDEHNVTKRRLERNLLYPIPTSEVNSNDKIDSNNPGW	not soluble
MGSDKIHHHHHHDEEPKSTLTDVAYYKTQSQMESNVNYLYRTGAIGSYVDFGSAYIGPFASIQEELTGYFSNSYEGQEIVCRYTRELTRQQNTMQLASKMDKVWDDCYRGINVANGAIKHMPEVPMDQATADRLTAEAKFFRAFNYFYLVKTFGAVPFYTDPYELAENMELPRTETSTIYNQIESDLKDAMNVLPEATFAANGHRITKYVAAMTLTDVYMYQHKYAEAAETVRIVVNSNHKLTTNDDLAMNSAFNKLRSTDDLDEAIYAYEYDNQISPSNWLPTYAFDGDASSNGLFGTYAITQKVHGPNDRYLNIYESNDLRRQPNQFYHWTYTNPKTGKVWNSVGNAACCWYYYDEDALLTTGRGTKDWNVYRYAEALLDAAESIAQSTGVTAEAAGYLAQVKARANMEGKTAAEIASSLQSMGKQAFIEECWTERLRELPLEFKMWDMCVRTGMFPNISETTPGQVTYIPLVGAKNASGATIKESDLLWPLSVNEIQRNPSLTQNEGYSAK	not soluble
MGSDKIHHHHHHENLYFQGMLYHLVMLEPEGEGAMDRIMEAMAILDGLAPELPGLTEFRHGPNRDFEQKSERYPYGFLCTFTDKAALDAYAVHPTHQRAGGMLVASCRNGADGILVVDLEV	soluble
MGSDKIHHHHHHENLYFQGMTQFKLIGFDLDGTLVNSLPDLALSINSALKDVNLPQASENLVMTWIGNGADVLSQRAVDWACKQAEKELTEDEFKYFKRQFGFYYGENLCNISRLYPNVKETLEALKAQGYILAVVTNKPTKHVQPILTAFGIDHLFSEMLGGQSLPEIKPHPAPFYYLCGKFGLYPKQILFVGDSQNDIFAAHSAGCAVVGLTYGYNYNIPIAQSKPDWIFDDFADILKITQ	soluble
MGSDKIHHHHHHENLYFQGMYPDLVHLGGADKYFEEILEIVNKIKLFGDFSNEEVRYLCSYMQCYAAPRDCQLLTEGDPGDYLLLILTGEVNVIKDIPNKGIQTIAKVGAGAIIGEMSMIDGMPRSASCVASLPTDFAVLSRDALYQLLANMPKLGNKVLIRLLQLLTARFRESYDRILPKTLGELI	soluble
MGSDKIHHHHHHESEDPWLVLQKAARAAHELSYKGVFIYQAGDNIKSVQITHTNSGQGEYARMVVLDGAPREVLSQGGDVVIFSSKNEKVIMEKRRAHNLFPAVLPDDMELLKANYQARIGGTERIAGRAGRVVFLDPRDGLRYAYKFWADCEYGLLLKSLMLSEQKQMLEQMAFSQLNMMEEQGMDWFHPSVDHSKHYILEEANAQLVQEASNWTVGALPVGYRKVEQVTRLVPGKSAPVTQVIFTDGLASVSLFIEPLSKGVRPRIGQTSKGATHFYANVSKGHQILVVGEVPAATVAQIGSAVSFK	not soluble
MGSDKIHHHHHHFDLEPSSSVPTDKVYKTADDFNVAVIGCYSKLQGQVSYFTECCEYRSDNLSLSAPTAGTQDRYDIDQFADKASNGILESAWANFNNGVYRCNLVLDKIDAADFDATLKKQYKGEALFVRALTYFNMYRLWGGIPMTDKVVTVAEALKIGRSSEQQVFDFLTGDLNQVINENMLPSSYTGTDTGRATSGAAMALLGKIYLTFHKWTEARNVLSQLIGRYSLMPTPDKVFDVDNKMNDEIIFAVRFNKDVEGEGHGYWFSIINLTDDTNQTKALKECYKDGDKRKDLITYVKVEDKVCVMNKFKDLKSATYNTVGNDQIILRYADVLLMYAEALNEISYSNSQTSDAMVALNAVHTRAGLSPVQITELADQDSFRKAIMLERQQEFPYEGHRWFDLVRMGGAKEAMKAEGHTIQDFQFLYPIPKTELERINNTELLWQNPGY	not soluble
MGSDKIHHHHHHGEDSEGSGTSGISPGGNSVSEEVLKHRSMVEKYAKESDILDYVPILLAIIQVESGGTMEDVMQSSESAGLPPNSLSTEASIKQGCIYFASLVKSSKELGCDQDSIIQAYNYGGGYLNYVAKNGKKHSFTLAESFSKEKSGGQKVDYPNPIAIKENGGWRYNYGNMFYCLLVKQYLTTTQFDDKTVQGIFDEAFKYEGTAYVFGGSSPATGFDCSGLTQWCYAKVGLKLPRVAQDQYDVMTHIDLKDAKPGDLIFFHSTYDAGTYVTHVGIYAGENRMFHAGNPVGWTNLTESYWQQHLIGAGRYN	not soluble
MGSDKIHHHHHHGMDKLSTKNYHTLLEVINDQEMIASPNTQLDSQVIANSSPFGGEVVTNRSKNIDGYTVEWSNLRSRYSFFRNSIDWNEVYPGSYYSSKNFYEYNRQTKQKVASFYNPAITNYYGGIKNELSELDKMENQVAEVAISFDKPYPYEEVRKMLPSNVNLVWLYVYSETVNEAEGPSGTLPYGFQLSMDDQNEIFDPENDKQHFFETLEKSPLFADNQEGQKFIQQNKNKKVEKLPIWGVMLTGQTKNFKALQNEPFVRGASIGVTAPIVPYIQPEK	not soluble
MGSDKIHHHHHHKDYKTFPDKYTLSSVDVGGMTAKEAKKAIKKAIDKYQIKVKLDDAEFEMNAEDLGLEYNEKADMQTLINAANRNKVPDKQVKLFNMKKGDEMQNALVDSYITAMTEAQTDSTSNTDNDTDDTKQADKSDAEIFDIKTVVPYRATITYNADAGQFEGVDGVSGDAPIYDKAATKLSSAVKEMKKKAELESSTGYVEGEKAADSDAVKKALKEADAYLDVTVQRHL	not soluble
MGSDKIHHHHHHLAGERENWFVSIPPRRGSVLDVRGRKIVYDSPEYVAYLDVDFFKRQNGDIKALEKTLQNCGITKSAEEVMEYKFFKLTEGEDKVDVLKKIESELLPFVNIELVYTRKKIQDYATGILLGTVIDGTGKGGIEGFFDDQLQGKRKGFLELRYRGARLSPTLVNYSPPENGKDVWLSLDLDLQRRVYDIISKAVEGNSAEAGHVIVMESKTGRILSMVTTRNWNDLIGGYIEPGSTIKPLVYAIALETHSASPDFTVECEGSIKPVEQLPVIIRDIEKHGLVDFSAGIVKSCNVMSVKVGELITEKTGVEGFYEWLRKVGFGEKTGIEMEGEIAGVLREPKKWSLIDPAEISIGQGIGVTPVQLIASLNIFANDGYWVKPTILKDSPVKKRRVFSKETTDVIRQAMVRVVEEGTGKLAQVKGIAIAGKTGTAQKAVGGEYRNLYHSLFVGFFPAEDPKYTILVHLDSPSGAFYGGEVAAPVFREIVEILTEKEDGRIRIVKGLMPDLRGLPVRDALLVLESLGVKDVEIKGKGWKVSEQTPPPNHPLEGPVILFLSDQK	not soluble
MGSDKIHHHHHHLANTKELGPLRILISRLLKKAGELCFTASDLTISKEQAKLITRGAPRFPYHTPHNMLFWLDESQYVDKCIIQHGKYESASTNLVQQFVKEGQTVLDIGGNIGYYTVMFSKIVGRSGKVITFEPTAHYRSILEKNVQENQINNVLIRPEGLSDKAEKLTISIGSSTATLHAPEGQQIDSYEAIQLARLDDLVEQLDITKLDFIKIDVDGHEPSVLRGAQQTIKKFKPLILLEVSHLHYLEGNVFAWDFYDYLSSLNYYIYDEHEMCRITRRSDFLIRCANFDRSCNILLSPTLLNEH	not soluble
MGSDKIHHHHHHLEEILKLKASDTASLEARGEANKKYGIQDFDTWVKRILSRINCSSVLDVCCGTGNQLTYYIQMPCTTNILGVDISKDSLKIARQRCEYLLSTNKKLTLKCCKMEEMFDDKEIDRQYDLISCFYGLYYAEDVDVIVERMIDHLNHKGVFLIVGPYGKNNASLFEIIQKHCMIPELVIKSSTTFMQEDLILKLVTLPGISVDTETFVNPILYPSPQAVMDYWQASTFYVPQYHSTIQQELEKRFENHDVFVVEKHIMAIIASKL	not soluble
